Patent publication US11485776B2, “Antibodies against infectious diseases” (priority 2015, dated 2022)
“Also recorded” adds a separate entry of the source.

Assays:
[1] = test system: ENO1 proteins on Candida spp. (C. glabrate); assay type: binding
Text: (§1) (A) The total cell lysates of 5 Candida spp. were visualized on SDS-PAGE (left). After transferred onto the NC membranes, they were probed with purified anti-CaENO1 from 7th immunized chicken (1:3,000) (middle), or with CaS1 scFv (right) as described in material and methods. Lanes 1-6 in (A) contained the total cell lysates of C. albicans, C. krusei, C. tropicalis, C. parapsilosis and C. glabrate and purified recombinant CaENO1, respectively. […] (C) Total cell lysate from FLU^R and FLU^s and C. tropicalis (lanes 1-5 represent CT6-29, CT11-52, CT6-50, CT12-54, BCRC20520, respectively) by SDS-PAGE (left) and probed with CaS1 scFv by Western blot (right). (D) The purified ENO1 proteins of C. albicans, S. pneumonia, S. aureus, mouse and human were visualized on SDS-PAGE (left). After transferred onto the NC membranes, they were probed with purified CaS1 scFv (right) as described. Lane M contained protein markers.
(§2) To detect the presence of ENO1 proteins, the purified recombinant ENO1 protein or cell lysates of five Candida spp were subjected to SDS-PAGE analysis, transferred onto nitrocellulose membranes (Amersham Biosciences, UK) and then blocked with 5% skim milk in TBST for 1 hr. The anti-CaENO1 IgY from chicken after 7th immunization (1:3,000) or purified CaS1 scFv antibody (1 μg/ml) were added and incubated for 1 hr at room temperature. After vigorous washings, horseradish peroxidase (HRP)-conjugated polyclonal donkey anti-chicken IgY antibodies (1:3,000) (Bethyl Laboratories, Montgomery, Tex., USA) were added and incubated for an additional 1 hr for detecting the bound IgY antibodies. However, goat anti-chicken light chain antibodies (1:3,000) (Bethyl Laboratories, Montgomery, Tex., USA), followed by HRP-conjugated donkey anti-goat IgG antibodies (Jackson ImmunoResearch, USA) were used for detecting the bound scFv antibodies. After washings as above, the membranes were developed with diaminobenzidine (DAB) or ECL substrate. The ImageQuant LAS4500 was used for ECL intensity detection.
(§3) This CaS1 scFv was evaluated for its binding activity to different species of Candida. Five common strains of Candida were obtained, total lysate of five species Candida were analyzed on SDS-PAGE (FIG. 6A left) and subsequent Western blot.

[2] = test system: ENO1 proteins on Candida spp. (C. krusei); assay type: binding
Text: as §1, §2, §3

[3] = test system: ENO1 proteins on Candida spp. (C. parapsilosis); assay type: binding
Text: as §1, §2, §3

[4] = test system: ENO1 proteins on Candida spp. (C. tropicalis); assay type: binding
Text: as §1, §2, §3

[5] = molecular target: T1, alpha-enolase on the surface of C. albicans (Candida albicans, UniProt P30575); test: Immunofluorescence staining of C. albicans; assay type: cell-based
T1 construct: endogenous in cells; host or cells: C. albicans SC 5314 and clinical isolates CA6-17, CA7-26, CA7-3, CA10-50, CA7-30, CA10-65
T1 sequence (P30575 whole entry): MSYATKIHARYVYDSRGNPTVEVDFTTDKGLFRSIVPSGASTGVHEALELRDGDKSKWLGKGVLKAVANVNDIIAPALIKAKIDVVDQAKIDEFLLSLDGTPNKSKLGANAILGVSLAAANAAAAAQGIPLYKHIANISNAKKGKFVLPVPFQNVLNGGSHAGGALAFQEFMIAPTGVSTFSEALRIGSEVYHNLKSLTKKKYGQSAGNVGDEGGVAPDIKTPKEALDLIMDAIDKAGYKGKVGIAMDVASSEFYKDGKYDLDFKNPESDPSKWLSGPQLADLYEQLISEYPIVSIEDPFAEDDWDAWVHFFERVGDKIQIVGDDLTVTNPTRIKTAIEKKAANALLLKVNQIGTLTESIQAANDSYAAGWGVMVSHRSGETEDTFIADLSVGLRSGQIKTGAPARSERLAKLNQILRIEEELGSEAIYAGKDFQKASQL
Text: Anti-CaENO1 antibodies were used to detect alpha-enolase protein on C. albicans cell surface ENO1. (1) Detected with anti-CaENO1 IgY and developed by FITC conjugation rabbit anti-chicken antibodies. (2) Detected with scFv CaS1 and developed by goat anti-chicken light chain antibodies and FITC rabbit anti-goat antibodies. (3) An irrelevant scFv was used on negative control.
Anti-CaENO1 IgY, scFv CaS1 and control scFv were used in immunofluorescence assay for identification of CaS1 antibody to alpha-enolase on cell surface of C. albicans.

B1: CaS1 scFv: anti-CaENO1 scFv monoclonal antibody from chicken phage library; light chain SEQ ID NO:11, heavy chain SEQ ID NO:12 (antibody, V domains shown)
VH: TVTLDESGGGLQTPRGALSLVCKASGFTFIDYGMQWVRQAPGKGLEWVAGIGSSGSSTNYGAAVKGRATISRDDGQSTVRLQLNNLRAEDTGTYYCAKSAGGYCVNGAGCNGGSIDAWGHGTEVIVSS
VL: ALTQPSSVSANLGGTVKITCSGGSGSYGWYQQKSPGSAPVTVIYSNNQRPSNIPSRFSGSPSGSTGTLTITGVQADDEAVYFCGSRDSSYVGVFGAGTTLTVL
modifications: scFv linker; amino acid sequence comprised in a heavy chain of an anti-CaENO1 scFv monoclonal antibody (CaS1); amino acid sequence comprised in a light chain of an anti-CaENO1 scFv monoclonal antibody (CaS1)
[1]
  Binding to ENO1 in total cell lysate of C. glabrate (Western blot): cannot react
  Binding to fluconazole resistance and susceptible C. glabrate from clinic (Western blot): not
[2]
  Binding to ENO1 in total cell lysate of C. krusei (Western blot): cannot react
[3]
  Binding to ENO1 in total cell lysate of C. parapsilosis (Western blot): cannot react
  Binding to fluconazole resistance and susceptible C. parapsilosis from clinic (Western blot): not
[4]
  Binding to ENO1 in total cell lysate of C. tropicalis (Western blot): specifically recognized; also recorded: reacted
  Binding to fluconazole resistance and susceptible C. tropicalis from clinic (Western blot): binds; also recorded: can bind
[5]
  Binding to alpha-enolase on the surface of C. albicans (immunofluorescence): bind
